Laboratory results: patent US20150344570A1 (published 2015)
Numbering of substitutions follows the chain as printed. Numbers in names are those of the source.

T1: FcγRIIa R (human, UniProt P12318 34-217)
T1 construct: extracellular domain; also called FcgRIIa R type; 2aR; not shown: His tag at the C terminus
T1 sequence (looked up): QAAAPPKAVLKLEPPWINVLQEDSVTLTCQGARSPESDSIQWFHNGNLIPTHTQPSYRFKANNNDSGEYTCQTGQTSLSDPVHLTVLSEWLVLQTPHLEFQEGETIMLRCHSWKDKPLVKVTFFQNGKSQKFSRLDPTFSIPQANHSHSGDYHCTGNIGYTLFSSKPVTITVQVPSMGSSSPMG

T2: FcγRIIb (human, UniProt P31994 43-217)
T2 construct: extracellular domain; also called FcgRIIb; 2b; not shown: His tag at the C terminus
T2 sequence (looked up): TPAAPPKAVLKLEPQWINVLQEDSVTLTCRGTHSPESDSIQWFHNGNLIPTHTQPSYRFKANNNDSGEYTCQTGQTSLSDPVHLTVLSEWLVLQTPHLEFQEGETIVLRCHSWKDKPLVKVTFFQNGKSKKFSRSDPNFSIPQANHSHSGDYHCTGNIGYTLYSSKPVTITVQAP

T3: FcγRIIb (human, UniProt P31994 43-217)
T3 construct: extracellular domain; also called FcgRIIb; 2b
T3 sequence (looked up): T2 sequence (looked up)

T4: FcγRIIa H (human, UniProt P12318 34-217)
T4 construct: extracellular domain; also called FcgRIIa H; FcγRIIa type H
T4 sequence (looked up): T1 sequence (looked up) with R134H

B1: GpH7-A5/GpH7-B3 variant A327_01G/GpL16-k0 (antibody, human IgG1, kappa)
heavy 1: not shown
heavy 2: not shown
light: DIVMTQSPLSLPVTPGEPASISCQASESLVHSNRNTYLHWYLQKPGQSPQLLIYKVSNRFSGVPDRFSGSGSGTDFTLKISRVEAEDVGVYYCSQNTHVPPTFGQGTKVEIERTVAAPSVFIFPPSDEQLKSGTASVVCLLNNFYPREAKVQWKVDNALQSGNSQESVTEQDSKDSTYSLSSTLTLSKADYEKHKVYACEVTHQGLSSPVTKSFNRGEC
notes: Heterodimerized anti-glypican-3 IgG1; mutation in the GpH7-B3 chain only; also called He Ab
B2: GpH7-A5/GpH7-B3 variant I332_02A/GpL16-k0 (antibody, human IgG1, kappa)
heavy 1: not shown
heavy 2: not shown
light: B1 light
notes: as for B1
B3: GpH7-A5/GpH7-B3 variant S239_03V/GpL16-k0 (antibody, human IgG1, kappa)
heavy 1: not shown
heavy 2: not shown
light: B1 light
notes: as for B1
B4: GpH7-A5/GpH7-B3 variant L328_19Q/GpL16-k0 (antibody, human IgG1, kappa)
heavy 1: not shown
heavy 2: not shown
light: B1 light
notes: as for B1
B5: GpH7-A5/GpH7-B3 variant Y300_19Q/GpL16-k0 (antibody, human IgG1, kappa)
heavy 1: not shown
heavy 2: not shown
light: B1 light
notes: as for B1
B6: GpH7-A5/GpH7-B3 variant S267_07I/GpL16-k0 (antibody, human IgG1, kappa)
heavy 1: not shown
heavy 2: not shown
light: B1 light
notes: Heterodimerized antibody, alteration in one H chain only; also called He Ab S267I
B7: GpH7-A5/GpH7-B3 variant P238_20W/GpL16-k0 (antibody, human IgG1, kappa)
heavy 1: not shown
heavy 2: not shown
light: B1 light
notes: Heterodimerized antibody, alteration in one H chain only; also called He Ab P238W
B8: GpH7-A5/GpH7-B3 variant S267_19Q/GpL16-k0 (antibody, human IgG1, kappa)
heavy 1: not shown
heavy 2: not shown
light: B1 light
notes: Heterodimerized antibody, alteration in one H chain only; also called He Ab S267Q
B9: GpH7-A5/GpH7-B3 variant S267_06M/GpL16-k0 (antibody, human IgG1, kappa)
heavy 1: not shown
heavy 2: not shown
light: B1 light
notes: Heterodimerized antibody, alteration in one H chain only; also called He Ab S267M
B10: GpH7-A5/GpH7-B3 variant S239_06M/GpL16-k0 (antibody, human IgG1, kappa)
heavy 1: not shown
heavy 2: not shown
light: B1 light
notes: Heterodimerized antibody, alteration in one H chain only; also called He Ab S239M
B11: GpH7-A5/GpH7-B3 variant P238_19Q/GpL16-k0 (antibody, human IgG1, kappa)
heavy 1: not shown
heavy 2: not shown
light: B1 light
notes: Heterodimerized antibody, alteration in one H chain only; also called He Ab P238Q
B12: GpH7-A5/GpH7-B3 variant S239_05P/GpL16-k0 (antibody, human IgG1, kappa)
heavy 1: not shown
heavy 2: not shown
light: B1 light
notes: Heterodimerized antibody, alteration in one H chain only; also called He Ab S239P
B13: GpH7-A5/GpH7-B3 variant K326_04F/GpL16-k0 (antibody, human IgG1, kappa)
heavy 1: not shown
heavy 2: not shown
light: B1 light
notes: Heterodimerized antibody, alteration in one H chain only; also called He Ab K326F
B14: GpH7-A5/GpH7-B3 variant S239_03V/GpL16-k0 (antibody, human IgG1, kappa)
heavy 1: not shown
heavy 2: not shown
light: B1 light
notes: Heterodimerized antibody, alteration in one H chain only; also called He Ab S239V
B15: GpH7-A5/GpH7-B3 variant S267_08L/GpL16-k0 (antibody, human IgG1, kappa)
heavy 1: not shown
heavy 2: not shown
light: B1 light
notes: Heterodimerized antibody, alteration in one H chain only; also called He Ab S267L
B16: GpH7-A5/GpH7-B3 variant P238_10E/GpL16-k0 (antibody, human IgG1, kappa)
heavy 1: not shown
heavy 2: not shown
light: B1 light
notes: Heterodimerized antibody, alteration in one H chain only; also called He Ab P238E
B17: GpH7-A5/GpH7-B3 variant S239_01G/GpL16-k0 (antibody, human IgG1, kappa)
heavy 1: not shown
heavy 2: not shown
light: B1 light
notes: Heterodimerized antibody, alteration in one H chain only; also called He Ab S239G
B18: GpH7-A5/GpH7-B3 variant Y300_10E/GpL16-k0 (antibody, human IgG1, kappa)
heavy 1: not shown
heavy 2: not shown
light: B1 light
notes: Heterodimerized antibody, alteration in one H chain only; also called He Ab Y300E
B19: GpH7-A5/GpH7-B3 variant Y296_20W/GpL16-k0 (antibody, human IgG1, kappa)
heavy 1: not shown
heavy 2: not shown
light: B1 light
notes: Heterodimerized antibody, alteration in one H chain only; also called He Ab Y296W
B20: GpH7-A5/GpH7-B3 variant P271_08L/GpL16-k0 (antibody, human IgG1, kappa)
heavy 1: not shown
heavy 2: not shown
light: B1 light
notes: Heterodimerized antibody, alteration in one H chain only; also called He Ab P271L

Target: T1, FcγRIIa R
Assay: SPR, relative to GpH7-A5/GpH7-B3/GpL16-k0

He/Con_2aR [control = 100] | Binder
98.2 | B1
97.6 | B2
99.9 | B3
89.3 | B4
99.7 | B5

Target: T2, FcγRIIb
Assay: SPR, relative to GpH7-A5/GpH7-B3/GpL16-k0

He/Con_2b [control = 100] | Binder
116 | B1
103 | B2
108 | B3
105 | B4
108 | B5

Target: T3, FcγRIIb
Assay: SPR (Biacore), antibody captured, FcγR analyte; binding relative to GpH7-A5/GpH7-B3/GpL16-k0 = 100

He/Con_2b | Binder
192 % of control | B6
123 % of control | B7
218 % of control | B8
210 % of control | B9
101 % of control | B10
110 % of control | B11
102 % of control | B12
155 % of control | B13
108 % of control | B14
109 % of control | B15
232 % of control | B16
144 % of control | B17
134 % of control | B18
103 % of control | B19
103 % of control | B20

Target: T4, FcγRIIa H
Assay: as above

He/Con_2aH | Binder
34.7 % of control | B6
59.5 % of control | B7
61.3 % of control | B8
34.3 % of control | B9
98.6 % of control | B10
56.4 % of control | B11
33.3 % of control | B12
97 % of control | B13
91 % of control | B14
29 % of control | B15
77.1 % of control | B16
97 % of control | B17
97.2 % of control | B18
97.6 % of control | B19
86.7 % of control | B20
